Data published in publication PMC12222023 (Nature, 2024).
Numbering of substitutions follows the chain as printed.

B1: His-tagged TULP3, bacterially expressed (natural protein, human, UniProt O75386 1-442, looked up)
chain: MEASRCRLSPSGDSVFHEEMMKMRQAKLDYQRLLLEKRQRKKRLEPFMVQPNPEARLRRAKPRASDEQTPLVNCHTPHSNVILHGIDGPAAVLKPDEVHAPSVSSSVVEEDAENTVDTASKPGLQERLQKHDISESVNFDEETDGISQSACLERPNSASSQNSTDTGTSGSATAAQPADNLLGDIDDLEDFVYSPAPQGVTVRCRIIRDKRGMDRGLFPTYYMYLEKEENQKIFLLAARKRKKSKTANYLISIDPVDLSREGESYVGKLRSNLMGTKFTVYDRGICPMKGRGLVGAAHTRQELAAISYETNVLGFKGPRKMSVIIPGMTLNHKQIPYQPQNNHDSLLSRWQNRTMENLVELHNKAPVWNSDTQSYVLNFRGRVTQASVKNFQIVHKNDPDYIVMQFGRVADDVFTLDYNYPLCAVQAFGIGLSSFDSKLACE
B2: His-tagged TULP3(4G), bacterially expressed (natural protein, human, UniProt O75386 1-442, looked up)
chain: B1 chain with Y193G, P195G, K333G, P336G

Key:
[1] = target: T1, His-tagged SIRT1(E230K), bacterially expressed (human, UniProt Q96EB6 1-747, E230K); assay: SEC
T1 sequence (looked up): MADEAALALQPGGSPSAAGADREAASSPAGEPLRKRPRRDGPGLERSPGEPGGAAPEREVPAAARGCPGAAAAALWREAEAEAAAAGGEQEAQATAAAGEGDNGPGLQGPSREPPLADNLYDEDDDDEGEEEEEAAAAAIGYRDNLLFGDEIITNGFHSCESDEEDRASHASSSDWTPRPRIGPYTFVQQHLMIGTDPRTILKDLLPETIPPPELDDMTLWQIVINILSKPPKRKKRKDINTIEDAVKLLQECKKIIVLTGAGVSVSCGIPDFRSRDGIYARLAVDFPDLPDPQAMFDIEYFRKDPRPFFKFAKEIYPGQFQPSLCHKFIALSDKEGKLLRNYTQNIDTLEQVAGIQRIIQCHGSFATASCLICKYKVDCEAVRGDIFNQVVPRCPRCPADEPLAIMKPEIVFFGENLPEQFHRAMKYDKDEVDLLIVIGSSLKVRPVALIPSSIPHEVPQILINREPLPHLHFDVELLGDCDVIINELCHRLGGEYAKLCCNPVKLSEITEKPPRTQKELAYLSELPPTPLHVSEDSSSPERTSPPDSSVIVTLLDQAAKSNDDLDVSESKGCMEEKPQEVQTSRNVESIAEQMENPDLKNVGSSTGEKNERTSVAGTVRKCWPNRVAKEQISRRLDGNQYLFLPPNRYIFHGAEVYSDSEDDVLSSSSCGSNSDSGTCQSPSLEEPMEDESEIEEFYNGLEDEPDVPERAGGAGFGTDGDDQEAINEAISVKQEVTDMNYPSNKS

[2] = target: T2, His-tagged SIRT1, bacterially expressed (human, UniProt Q96EB6 1-747); assay: SEC
T2 sequence (looked up): T1 sequence (looked up) with K230E

Binder | binding result [1] | binding result [2]
B1 | binds | –
B2 | – | binds
